From the supplement of paper PMC12764529 come the findings set out here.

± gives the half width of the 95% confidence interval.

Series [1] can be described thus: folding stability dG unfold from chymotrypsin proteolysis; higher = more stable. An outline of the steps: (§1)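 Sequencing followed digestion of designed mini-proteins with trypsin and chymotrypsin, each at 11 concentrations in threefold dilutions together with a no-protease condition. The mini-proteins were under 80 residues, had no cysteine, sat in a PA-tagged cDNA display construct, and were kept only if AlphaFold2 dimer inter-PAE was above 15. From the counts, Bayesian fitting gave K50, and unfolding free energy was derived against a sequence-predicted unfolded-state K50 and a shared folded-state K50, per protease or combined.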

Series [2] can be described thus: folding stability dG unfold (combined trypsin and chymotrypsin); higher = more stable. An outline of the steps: as §1
The nature of series [3]: folding stability dG unfold from trypsin proteolysis; higher = more stable. An outline of the steps:
as §1

Regarding “SAGGGMIERYDGKIVIKLKGPNGKEWTSTTEPLPDGTARITVTHPDKVLYLEHTPEGISVVSEVSNEKSAGG [r13_619_JUSTAS]”, the “folding stability dG unfold” value in series [1] was -0.426 ± 0.45 kcal/mol; in series [2], -0.411 ± 0.22 kcal/mol; in series [3], -0.757 ± 0.33 kcal/mol.

Regarding “SAGGGMMTVTVTRVEREKPAGDEYLEKVLVTLPDSTLEATLTLKEKEEADKPPSVTVVPLEAVLALLASAGG [r13_540_JUSTAS]”, the “folding stability dG unfold” value in series [1] was -0.274 ± 0.31 kcal/mol; in series [2], 0.57 ± 0.11 kcal/mol; in series [3] it was 0.927 ± 0.019 kcal/mol.

“SAGGGMPTSIVLPLTVSPENVEEAIAALKAQLEAQGYTLLEVNPVKDGNTWKLRAVFRAPDGTLVTDESAGG [r13_421_JUSTAS]”: the figures for the “folding stability dG unfold” value in series [1], in series [2] and in series [3] were 3.313 ± 0.017 kcal/mol, 3.26 ± 0.059 kcal/mol and 3.11 ± 0.079 kcal/mol, respectively.

On to “SAGGGMRAVEVTVTLTVPSSTSVEEAVERVKAEFEAAGLEAEPVSVTVTPVPGSVTVTVRLRVLRPPASAGG [r13_351_JUSTAS]”, for which the “folding stability dG unfold” value in series [1] was found to be 3.48 ± 0.049 kcal/mol; in series [2], 3.19 ± 0.063 kcal/mol; in series [3], 2.31 ± 0.04 kcal/mol.

Regarding “SAGGGMSEEYVKKLFESLGFTKLETREYPGLKVTTFSAKDLTVVAYPDGTIEIFDKNGNLIKTDKGLSAGGS [r8_147_JUSTAS]”, the “folding stability dG unfold” value is 1.82 ± 0.03 kcal/mol in series [1], 1.54 ± 0.049 kcal/mol in series [2] and 1.06 ± 0.021 kcal/mol in series [3].

As for “SAGGGMSGKAISEEEIEALIKEEAEKRGLKIEIKEITRPPGTVTVTVKITEGDSVTEKTIDFPILPEPSAGG [r13_652_JUSTAS]”, the entries for the “folding stability dG unfold” value in series [1], in series [2] and in series [3] were 1.64 ± 0.054 kcal/mol, 1.59 ± 0.06 kcal/mol and 1.54 ± 0.039 kcal/mol, respectively.

For the sequence “SAGGGMTTTTVTVTLDVPPDAGEEEVERLAEEIAAELKAAHPNITVTVEKITIDEKNATFTITVTTPGSAGG [r13_805_JUSTAS]”, the entries for the “folding stability dG unfold” value in series [1], in series [2] and in series [3] were 2.928 ± 0.029 kcal/mol, 3.03 ± 0.058 kcal/mol and 3.19 ± 0.096 kcal/mol, respectively.

On to “SAGGGMTVTRTIYLPNMTEEEKKALAEEIAEEVREELEKRGYPVKEITVDVKFIPGKGIVIVTVTLKLSAGG [r13_212_JUSTAS]”, for which the “folding stability dG unfold” value in series [1] is 3.64 ± 0.089 kcal/mol; in series [2], 3.52 ± 0.055 kcal/mol; in series [3], 3.29 ± 0.09 kcal/mol.

In the case of “SAGGGMTVVRITHPDGTPLTIEYDPNNPVATVHFADGTTETIPMPPDKTIEDLIAKLPEDAEVEVHDRSAGG [r13_696_JUSTAS]”, the entries for the “folding stability dG unfold” value in series [1], in series [2] and in series [3] were 1.19 ± 0.026 kcal/mol, 0.847 ± 0.14 kcal/mol and 0.321 ± 0.078 kcal/mol, respectively.

Consider “SAGGGMVVYVTVPPDDPRVEELKERLAADPRVSDVTVEKVEEYPDTVRLRFTFPGDPAVVAAARALLSAGGS [r16_394_JUSTAS]”, for which the “folding stability dG unfold” value in series [1] amounted to 1.51 ± 0.096 kcal/mol; in series [2], 1.32 ± 0.053 kcal/mol; in series [3], 0.995 ± 0.059 kcal/mol.

For the sequence “SAGGGPAPVVVTVEYDPETREQRVTARAGGGGVVFELSLPLGDKTVTVKVIPVGDKVLLEVEWEVKGSAGGS [r16_631_TrMRF]”, the “folding stability dG unfold” value stood at 3.06 ± 0.13 kcal/mol in series [1], 2.91 ± 0.15 kcal/mol in series [2] and 2.95 ± 0.16 kcal/mol in series [3].

For the sequence “SAGGGPDLPGEVEVEVEITRVEFDPETGELRVEAEATFPDGLVAKVKITFPEPGDLDKFEVEVEVEPASAGG [r13_894_TrMRF]”, the “folding stability dG unfold” value in series [1] was 1.68 ± 0.071 kcal/mol; in series [2], 1.59 ± 0.035 kcal/mol; in series [3], 1.5 ± 0.052 kcal/mol.

As to “SAGGGPMPIDVEVLEVTPDSVRIRYPETGAVFTFDPNKEHEFTLPDGSRITVTFKPDGSVSATVTVPGSAGG [r13_352_JUSTAS]”, the figures for the “folding stability dG unfold” value in series [1], in series [2] and in series [3] were 4.13 ± 0.13 kcal/mol, 4.16 ± 0.14 kcal/mol and 4.35 ± 0.3 kcal/mol, respectively.

On to “SAGGGPMPVEKEVEITLEVDPSDPASVRARLEALAASRGVEEITEITEETLPDGSRRVTAKVKWLLPVSAGG [r13_222_JUSTAS]”, for which the “folding stability dG unfold” value was 0.397 ± 0.15 kcal/mol in series [1], 0.875 ± 0.087 kcal/mol in series [2] and 1.15 ± 0.067 kcal/mol in series [3].

In the case of “SAGGGPNTYVKVTLPLPPNKADVVEEIAKLFPNVKVEVTTTPENGTLPVTFYFPSPDGSPDAKVSIFSAGGS [r8_267_TrMRF]”, the “folding stability dG unfold” value amounted to 1.11 ± 0.31 kcal/mol in series [1], 0.754 ± 0.15 kcal/mol in series [2] and 0.407 ± 0.15 kcal/mol in series [3].

As for “SAGGGQPVKITEIENIDPNNGKITFEIVDPDDGRPLKIKIPVQRRPNGKPYLQIEIEVDGKKWEIMFMSAGG [r13_993_TrROS]”, the “folding stability dG unfold” value in series [1] was 1.67 ± 0.16 kcal/mol; in series [2] it was 1.87 ± 0.15 kcal/mol; in series [3], 1.7 ± 0.17 kcal/mol.

For the sequence “SAGGGRTITVTARFTDPATGTTTTETITIDVPSDTSEEEKKEIAEKTVKEIAEKNGVKSEIESISITSAGGS [r8_312_JUSTAS]”, the “folding stability dG unfold” value in series [1] was 2.3 ± 0.17 kcal/mol; in series [2], 4.32 ± 0.7 kcal/mol; in series [3], 4.24 ± 0.29 kcal/mol.

On to “SAGGGSMVFVEFPQGGKTVRVDVDLEKGVLRVRFPGEGAVLEYPVRDPEAVVRELTPADVPVRAYPESAGGS [r8_95_JUSTAS]”, for which the “folding stability dG unfold” value worked out at 0.405 ± 0.11 kcal/mol in series [1], 0.439 ± 0.072 kcal/mol in series [2] and 0.346 ± 0.078 kcal/mol in series [3].
